The target of test [1] is T1, mouse fibrinogen (mouse, UniProt E9PV24 20-557; Q8K0E8 20-481; Q8VCM7 26-436, limits assumed).
T1 construct: also called fibrinogen (4)
T1 sequence (looked up) 1: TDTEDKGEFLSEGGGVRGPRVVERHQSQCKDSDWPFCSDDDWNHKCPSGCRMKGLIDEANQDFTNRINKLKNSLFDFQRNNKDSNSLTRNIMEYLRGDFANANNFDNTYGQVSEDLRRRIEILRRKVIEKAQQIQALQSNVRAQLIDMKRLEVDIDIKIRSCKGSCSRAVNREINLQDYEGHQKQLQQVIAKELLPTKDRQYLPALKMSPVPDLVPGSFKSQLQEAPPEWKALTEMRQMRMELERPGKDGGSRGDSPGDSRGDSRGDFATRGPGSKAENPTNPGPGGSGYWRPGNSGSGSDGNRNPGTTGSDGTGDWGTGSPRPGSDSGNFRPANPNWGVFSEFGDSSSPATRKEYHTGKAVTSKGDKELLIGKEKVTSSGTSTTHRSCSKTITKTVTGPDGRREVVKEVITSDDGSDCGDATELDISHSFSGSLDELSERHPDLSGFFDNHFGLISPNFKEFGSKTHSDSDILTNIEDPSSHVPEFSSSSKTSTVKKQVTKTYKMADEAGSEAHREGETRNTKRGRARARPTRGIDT
T1 sequence (looked up) 2: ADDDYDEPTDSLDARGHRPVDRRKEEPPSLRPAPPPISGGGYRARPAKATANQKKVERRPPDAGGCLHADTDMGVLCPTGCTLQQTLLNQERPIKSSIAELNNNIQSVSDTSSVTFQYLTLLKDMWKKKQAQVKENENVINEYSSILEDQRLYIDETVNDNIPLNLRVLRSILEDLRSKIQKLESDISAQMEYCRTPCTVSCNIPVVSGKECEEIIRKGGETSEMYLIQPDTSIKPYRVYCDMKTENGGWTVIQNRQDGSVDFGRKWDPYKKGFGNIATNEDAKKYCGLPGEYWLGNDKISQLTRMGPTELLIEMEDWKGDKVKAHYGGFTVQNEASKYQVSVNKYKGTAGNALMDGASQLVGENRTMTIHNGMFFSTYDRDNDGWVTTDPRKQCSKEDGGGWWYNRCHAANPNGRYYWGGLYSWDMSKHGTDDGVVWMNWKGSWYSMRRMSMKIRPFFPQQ
T1 sequence (looked up) 3: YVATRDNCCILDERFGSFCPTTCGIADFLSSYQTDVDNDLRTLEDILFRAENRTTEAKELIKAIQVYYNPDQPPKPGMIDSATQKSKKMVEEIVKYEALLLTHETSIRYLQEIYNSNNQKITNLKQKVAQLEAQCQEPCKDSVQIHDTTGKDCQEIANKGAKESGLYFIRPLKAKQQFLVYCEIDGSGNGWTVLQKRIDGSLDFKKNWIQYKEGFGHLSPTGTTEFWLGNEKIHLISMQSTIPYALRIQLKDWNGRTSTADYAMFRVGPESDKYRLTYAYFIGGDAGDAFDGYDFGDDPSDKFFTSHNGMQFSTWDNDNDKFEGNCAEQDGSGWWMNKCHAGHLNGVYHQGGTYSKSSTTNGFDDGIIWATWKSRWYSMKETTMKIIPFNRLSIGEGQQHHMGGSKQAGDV
Briefly: ELISA, hybridoma 102-10 culture supernatant on fibrinogen plate (Fig. 1C).

In test [2] the target is T2, human fibrin (human, UniProt P02671 36-629; P02675 45-491; P02679 27-437, limits assumed).
T2 construct: Made on the plate: fibrinogen (Sigma) coated at 50 ug/ml, dried, then treated with 10 NIH U/ml human thrombin with 10 mM CaCl2 and 7 mM L-cysteine; also called fibrin plate; fibrin (1)
T2 sequence (looked up) 1: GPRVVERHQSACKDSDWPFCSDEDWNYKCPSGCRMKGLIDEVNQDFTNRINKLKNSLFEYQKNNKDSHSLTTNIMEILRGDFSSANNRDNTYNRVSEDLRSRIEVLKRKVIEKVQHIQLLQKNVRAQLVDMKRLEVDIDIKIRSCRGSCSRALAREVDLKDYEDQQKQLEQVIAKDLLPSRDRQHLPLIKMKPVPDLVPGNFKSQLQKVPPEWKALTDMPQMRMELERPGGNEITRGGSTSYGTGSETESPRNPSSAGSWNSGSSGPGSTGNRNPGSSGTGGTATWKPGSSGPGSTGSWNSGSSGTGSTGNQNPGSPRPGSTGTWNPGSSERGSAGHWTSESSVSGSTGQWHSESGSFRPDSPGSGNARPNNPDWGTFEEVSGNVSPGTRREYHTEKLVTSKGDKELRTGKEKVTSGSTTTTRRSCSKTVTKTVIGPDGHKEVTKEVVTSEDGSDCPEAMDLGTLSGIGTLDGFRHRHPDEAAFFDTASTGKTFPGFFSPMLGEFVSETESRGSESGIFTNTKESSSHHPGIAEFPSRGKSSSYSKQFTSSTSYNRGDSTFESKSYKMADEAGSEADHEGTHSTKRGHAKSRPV
T2 sequence (looked up) 2: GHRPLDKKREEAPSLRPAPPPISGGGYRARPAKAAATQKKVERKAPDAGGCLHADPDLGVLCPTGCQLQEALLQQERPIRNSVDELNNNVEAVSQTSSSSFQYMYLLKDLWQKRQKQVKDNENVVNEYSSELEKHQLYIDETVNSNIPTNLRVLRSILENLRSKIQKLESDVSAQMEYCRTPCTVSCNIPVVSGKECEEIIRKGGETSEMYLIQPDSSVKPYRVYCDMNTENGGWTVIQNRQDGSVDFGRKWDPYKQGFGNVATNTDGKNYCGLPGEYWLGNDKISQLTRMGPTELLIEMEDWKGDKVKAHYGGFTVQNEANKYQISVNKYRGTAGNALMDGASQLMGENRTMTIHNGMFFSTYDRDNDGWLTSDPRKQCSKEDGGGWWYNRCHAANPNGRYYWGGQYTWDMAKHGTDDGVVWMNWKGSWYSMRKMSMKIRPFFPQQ
T2 sequence (looked up) 3: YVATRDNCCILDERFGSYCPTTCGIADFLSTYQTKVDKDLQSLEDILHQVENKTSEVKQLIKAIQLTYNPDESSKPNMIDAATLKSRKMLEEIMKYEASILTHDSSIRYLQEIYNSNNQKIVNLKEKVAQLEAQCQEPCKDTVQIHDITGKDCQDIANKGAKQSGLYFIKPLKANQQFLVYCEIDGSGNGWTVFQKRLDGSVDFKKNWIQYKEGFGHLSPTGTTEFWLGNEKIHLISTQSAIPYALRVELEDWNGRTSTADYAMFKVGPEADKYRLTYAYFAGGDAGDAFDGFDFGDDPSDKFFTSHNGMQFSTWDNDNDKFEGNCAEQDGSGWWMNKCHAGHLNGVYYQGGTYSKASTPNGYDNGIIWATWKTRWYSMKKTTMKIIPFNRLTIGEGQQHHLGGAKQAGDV
In words: ELISA, hybridoma culture supernatant (undiluted) on fibrin plate; selection of the clone. (In general: ELISA stands for enzyme-linked immunosorbent assay.)

Test [3] addresses T3, human fibrinogen (human, UniProt P02671 20-629; P02675 31-491; P02679 27-437, limits assumed).
T3 construct: Bought (Sigma), coated on 96-well plates at 50 ug/ml in TBS pH 8.5; also called fibrinogen (Sigma) plate; fibrinogen (2)
T3 sequence (looked up) 1: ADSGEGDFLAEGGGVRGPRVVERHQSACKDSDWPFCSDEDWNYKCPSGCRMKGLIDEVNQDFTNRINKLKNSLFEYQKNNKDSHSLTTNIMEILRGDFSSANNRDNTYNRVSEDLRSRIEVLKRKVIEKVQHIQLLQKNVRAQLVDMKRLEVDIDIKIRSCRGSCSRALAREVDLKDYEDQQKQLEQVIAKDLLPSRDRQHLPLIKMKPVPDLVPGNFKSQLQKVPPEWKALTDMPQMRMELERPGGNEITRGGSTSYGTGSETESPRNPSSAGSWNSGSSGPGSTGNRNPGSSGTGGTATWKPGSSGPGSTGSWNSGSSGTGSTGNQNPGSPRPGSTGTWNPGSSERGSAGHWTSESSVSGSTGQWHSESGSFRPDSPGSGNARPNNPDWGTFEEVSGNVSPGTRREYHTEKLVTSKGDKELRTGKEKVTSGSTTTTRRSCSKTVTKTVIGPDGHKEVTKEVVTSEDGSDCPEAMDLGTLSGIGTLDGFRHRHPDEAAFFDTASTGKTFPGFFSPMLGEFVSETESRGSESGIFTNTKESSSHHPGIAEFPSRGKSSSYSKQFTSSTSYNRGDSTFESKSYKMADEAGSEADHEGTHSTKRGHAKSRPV
T3 sequence (looked up) 2: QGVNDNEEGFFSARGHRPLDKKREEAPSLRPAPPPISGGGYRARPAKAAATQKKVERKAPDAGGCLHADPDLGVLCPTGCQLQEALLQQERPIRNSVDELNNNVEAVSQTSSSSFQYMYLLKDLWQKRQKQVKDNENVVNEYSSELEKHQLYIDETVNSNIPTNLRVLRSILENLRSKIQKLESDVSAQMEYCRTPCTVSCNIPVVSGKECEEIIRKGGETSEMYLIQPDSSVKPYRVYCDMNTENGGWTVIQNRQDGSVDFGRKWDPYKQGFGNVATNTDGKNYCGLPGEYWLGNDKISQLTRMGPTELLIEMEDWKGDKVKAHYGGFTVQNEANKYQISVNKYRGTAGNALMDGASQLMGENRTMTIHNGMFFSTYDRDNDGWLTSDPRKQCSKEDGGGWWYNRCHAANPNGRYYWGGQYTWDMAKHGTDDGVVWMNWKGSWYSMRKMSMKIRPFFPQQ
T3 sequence (looked up) 3: T2 sequence (looked up) 3
Briefly: ELISA, hybridoma culture supernatant (undiluted) on fibrinogen plate; selection of the clone.

Test [4] concerns the target T2, human fibrin. Briefly: ELISA, purified chimeric antibody on fibrin plate (Fig. 3).
In test [5] the target is T3, human fibrinogen. In words: ELISA, purified chimeric antibody on fibrinogen plate (Fig. 3).
In test [6] the target is T1, mouse fibrinogen. The test is described as above.

B1: mouse anti-fibrin IgM antibody produced by hybridoma cell line 102-10 (accession number NITE BP-923) (antibody, V domains shown)
VH: QIQLVQSGPELKKPGETVKISCKASGYTFTNYGMNWVKQAPGKGLKWMGWINTYTGEATYADDFKGRFAFSLETSANTAYVQINNLKNEDTATYFCARLMDYWGQGTSVTVSS
VL: DIQMTQSPSSLSASLGGKVTITCKASQDINKYIAWFQHKPGKGPRLLIHYTSTLQPGIPSRFSGSGSGRDYSFSISNLEPEDLATYYCLQYDNLTWTFGGGTKLEIK
notes: Mouse IgM; Tested as hybridoma culture supernatant in ELISA; also called clone 102-10; mouse IgM antibody
On to B1, for which the binding result is “no binding” in test [1], “binds” in test [2] and “no binding” in test [3].

B2: human type anti-fibrin chimeric antibody (human type IgG clone 102-10Hu) (antibody, V domains shown)
VH: B1 VH
VL: B1 VL
notes: made in CHO cells, purified on Protein G and hydroxyapatite; They may include a leader peptide; no cleavage site is stated; also called human chimeric antibody; human chimeric anti-fibrin IgG
As to B2, the binding result is given as “binds” in test [4], “no binding” in test [5] and “no binding” in test [6].

For the origin of these results see patent WO2011158973A1 (dated 2011).
